The text below walks through data of the DeepSol protein solubility set.

A short description of this data set: soluble on expression in E. coli; label from the status in PepcDB or PDB records.
Consider “MSLALYLGNKRMNDMYYTIGQVAKMQHLTISQIRYYDKQGLFPFLQRNEKGDRIFNEEALKYLEMILCLKNTGMPIQKIKQFIDWSMEGDSTILHRLKLMKQQEANVLQLIQDTEKNLKKIQQKIAKYEDEISSANATTKEGHHHHHH”, for which the “soluble on expression in E. coli” value is listed as “soluble”.

As for “MSLANADTYQPSYSTAGFYQLSNTGRTVYNMNPAWRFYKGNIEGAEQPRFNDKDWNIVSLPDGIEYLPTEASGCINYQGEIWYRKHFTPKESWKGKQQFLHFEAIMGKSKIWVNGKLLKEHFGGFLPVIVDVTSSLKYGEDNVITVWADNSDDPSYPPGKPQDALDFAYFGGIYRDCWMIVHNKVFITDPNYENETAGGGLFVSFDKVSEQSAQLKLDAHIRNTSGKSFSGKIIYELYDRDDKRVLSKETGLSVSKDLAKQISCKVTVETPHLWSPDSPYLYKLHIYIKDKAGNTIDGYYRRIGIRSIEFKGKDGFWLNGKPYPYPLMGANRHQDFAVIGNALPNSLHWRDAKKLRDAGMRVIRNAHYPQDPAFMDACDELGLFVIVNTPGWQFWNDQPIFAQRVYSDIRNMVRRDRNHPSVWMWEPILNETWYPADFAKNVVDILNEEYPYPYCYAGCDVTARGHEYFPIHFTHPMNGGGGAFNTENLDPKISYFTREWGDNVDDWNSHNSPSRVNRGWGEVPMLIQAQGYAKNDYQLTSYDGLYRTSRQHMGGCLWHSFDHQRGYHPDPFYGGIMDAFRQPKLSYYMFCSQRPAEPNKELIADEGHHHHHH”, the “soluble on expression in E. coli” value was “soluble”. For “MSLANQPIDLLMQPKWRVIDQSSLGPLFDAKQSFAMDDTLCMSVGKGVSPATARSWVHHDTIVLGIQDTRLPFLQDGISLLESEGYRVIVRNSGGLAVVLDDGVLNISLIFEDEKKGIDIDKGYEAMVELMRRMLRPYNAKIEAYEIEGSYCPGSYDLSINGKKFAGISQRRVRGGVAVQIYLCADKSGSERADLIRRFYQAALKDKQNDKKGVYPEIRPETMASLSELLQKDISVQDLMFALLTELKALSTHLYSAGLSIDEEMEFEKNLVRMAERNAKVFGEGHHHHHH”, the “soluble on expression in E. coli” value is “soluble”. With “MSLAQFSVNAQRFDPYKNFKFRIKWDGRYVAGVSKVSALKRTTEVVEHREGGDASNVRKSPGRTKYEPITMERGVTHDTEFEKWANKVWNYGSGMGAEVSLKDFRKDIIIEVYNEAGQLAIAYKVYRCWVSEYQALPELDANANAVAIQSMKLENEGWERDYDIGEPDEPTFTEPQEGHHHHHH”, the “soluble on expression in E. coli” value is reported as “soluble”. As for “MSLAQYPVIGIDDDEFATAKKLITKQEVRAVTLSKLRLQDDLVMWDIGAGSASVSIEASNLMPNGRIFALERNPQYLGFIRDNLKKFVARNVTLVEAFAPEGLDDLPDPDRVFIGGSGGMLEEIIDAVDRRLKSEGVIVLNAVTLDTLTKAVEFLEDHGYMVEVACVNVAKTKGLTEYKMFESHNPVYIITAWKSDEGHHHHHH”, the entry is “soluble”. For “MSLASIRTRIMILSDTHAQRFQPGLEPLEPVDLVIHCGDLTNNSTLRDYREAIHLLDSIKAPLKIVIAGNHDFSLDDKAYRRKIRETCRINQENLSGAIKAEYGQVGEAQQILLEAVAKGITFLSEGPHQLQLPSNSVLELYVSPYTPTHNCPGWGFQYDGIHDFNIKQGTDIVITHGPPLGIMDLTSNNERIGCPQLFAAVARAQPRVHCFGHVHEGWGAKLVSWRPNEGHHHHHH”, the “soluble on expression in E. coli” value is “not soluble”. With “MSLASLPISNFFTFNHQSTLFTKVKNFMGVKHIGDCMKALINGTIYTSFSPVKKVSGLVISNERVLYAGDSSTALRIAELAGGEIIDLKGKFVMPAFFDSHLHLDELGMSLEMVDLRGVKSMEELVERVKKGRGRIIFGFGWDQDELGRWPTREDLDVIDRPVFLYRRCFHVAVMNSKMIDLLNLKPSKDFDESTGIVRERALEESRKIINEKILTVKDYKHYIESAQEHLLSLGVHSVGFMSVGEKALKALFELEREGRLKMNVFAYLSPELLDKLEELNLGKFEGRRLRIWGVKLFVDGSLGARTALLSEPYTDNPTTSGELVMNKDEIVEVIERAKPLGLDVAVHAIGDKAVDVALDAFEEAEFSGRIEHASLVRDDQLERIKELKVRISAQPHFIVSDWWIVNRVGEERAKWAYRLKTLSSITKLGFSTDSPIEPADPWVSIDAAVNRYVVDPGERVSREEALHLYTHGSAQVTLAEDLGKLERGFRAEYIILDRDPLKEMKGIITITTDPNSSSVDKLAAALEHHHHHH”, the “soluble on expression in E. coli” value is “soluble”. Regarding “MSLATLKDVALHAGVSVTTVSNFINNKKKLKDDTRHNILEAIQATGYRHNALAASLKKSSASLRSIGIISIVDQNPFFSELFFKLENECFKQDFTVISCFRHKDKEDLHTYINLMSGRVDGIILISLKRDKIDNVIKHIHAVPVVAIAFDIGDVMSLCGGTEFNLHNETGGYIAGRFLLSKGHKKIACVTGPKALKTTVNRIAGLKKALADFNLPEDSVDFIEGNYTYQSGVDAMYQLFSSVALPTAIICHNDLMAIGVQNAANELGLKIPRELSVIGYDDIEMSKLSFPSLTTVRIPLDDIACQALEGLSMKMATPGSKAIISATPSLVVRGSVSKGIITITTDPNSSSVDKLAAALEHHHHHH”, the “soluble on expression in E. coli” value was “soluble”.

Take “MSLAYDNVMKDKKIRVGLMTDSIPGGFYNEKGEWGGFDYDIATEIAKRMGVDIERVQVNNKTRIAYVQQGRVDISVSNMTHTRERDKSVDFSITYFFDGQKVLAKKGQFKSVKDMVGKKIATMQGTTSEVNVKRALKEAGDPNPDQSVISFQKESECFQALQMGRVAGWSTDASILVGYSAKEPGKFELVGNFLAEEPYGIAMPQDDSALRDAVNAALQDMWKDGTYKTIYNKWYGPGTPFEMPLAGQIEMWPEGHHHHHH”: the “soluble on expression in E. coli” value is reported as “soluble”. Turning to “MSLAYETFAFVYDEVMDESLYQKWLDFSNRHLPQGTQQILEMACGTGALAVDFAKSGYDVTALDLSEEMLMIASERAFEEEVPVQFVQGNMLDLSEVGQYQAITCFSDSLCYMANRQEVQQVFDEVYQALEEEGTFIFDVHSTYKIDSVFPEYSYHYQTEEFAFLWDSYAGEKEHSIEHFLTFFVKEQETDEHFVRYDELHQERTYSLDNYLRMLESAGFMNVKVYADFTDEAPTETSERWFFVCQRDEGHHHHHH”, the “soluble on expression in E. coli” value was “soluble”. “MSLAYGNINQPFSLESLPDELIPENLYQIETDSSRVFQRHQCRRLAHLLLFQLLKIAGKSTALLSQIHRTESGRPYFLDERIDFNISHSGDWVAVILDIRNEEKSAVGIDIEFPKIRNFTALMEHIAPKEEIDWFHHQQDSLNAFYRCWCLREAVLKSQGFGIVKLSNVRHFPEQQKIFSDYCPQGQLWFTDELPIYLAAFVNHQEKLPHFYEWNRESLQIKELEKYVLYEVNEGHHHHHH”: the “soluble on expression in E. coli” value is recorded as “not soluble”.

For “MSLCIIGSGPGGLCMARALKRQGLDYEQFERHGEVGGVWDINNPGTPMYQSAHFISSRDQSGFIDYPMPAHFPDYPSNRQIFEYVRSFAVAFDLYDRIRFNTAVKDVEKEQDGRWLVTLASGERRRYRAVVCATGCNWDPNMPEVKGQFEGTVRHSVTYKNPDEFKGKRVMVIGADNSGADIACDAAKHADKAFISMRRGYHLIPKHLFGMPVDEFGEKGPQLPMWLARPVFQTILRVINGDTRRFGLPRPDHKLFESHPLLNTQLLHYLQHGDIQVKPDVSHYEGQHVVFKDGTREPLDLVLYATGYKWSCPYAAKYFEWQGGRPRLYLSIFSREHHNLFGIGYVETNSSAYKLFDSEAHAVACYLRDQLHQKTQASHFDQLIATDDPDLSGGIKFVKSQRHEVYLEAHALKKYLRKLFHSEGHHHHHH”, the “soluble on expression in E. coli” value was “not soluble”. On to “MSLCRVLSVKPSSYYDWINRDISSQQIHRNQSELLIKAAHSETKERYGFERLHAHLNEQGYDISPYMVRNIKEEHGIKCRRHKRFKVTTDSNHNKLIYDNVLDQQFDVNRPNEAWVSDITYIWTTEGWLYLAGVKDLYTKELVGYAINKRMTADLVCKALNMAIKNKRPSKGLIVHSDRGGQYCSHAYHKIIKQHQFKGSMSGKGNCYDNAPIESFWGVLKNELVYHQDYKTRFAAITDIIRYIELYYNQTRIQKGLGYKSPRQVWFDYYRQAAEGHHHHHH”, for which the “soluble on expression in E. coli” value is on record as “soluble”. Take “MSLDAAGLARSTFFYHQQRLNVPDKHIDLKEAIVEVFTRTNRRYGYRRIHAHLRQDGWNVNHKLVYKLMDELGLKSKVRAKKRYNAYQGTVSHIAENVLDRCFTPDKPNTVWTSDVTEFRIAGTKVYLSPIMDLYDRSIVSYSVSTSPNTAFTSRSLKDAITSQSPGSGLLVHTDQGIQYQHSSWRDLITSIDGIQSMSRKGNCYDNAVMENFFGHLKSEMHHGESFDGLEHFRQALDGYIHWYNHERIQKRLKGLAPMQYRNQTLEPLTAEGHHHHHH”: the “soluble on expression in E. coli” value was “not soluble”.

As to “MSLDAMAKILLVEDSATQAVEMTMLLQAANHEVVHVANGQLGLSHLKEQAPDLVITDLEMPEINGLQLVESMRANFSHIPSILVTSHGSEELAAEALRRGAAGYVPKTRMSDLLNDTIVDVLGVIRSDASYAKLISTLKKNVFVFDLPSDPELISPLVGLLMQVSAGMELLPSIEMVRLGVAVEHSLTNAMLHGNLEIPRDKQPSHGQLAREGMINDAMKERLSQEPYKSRVTHVEATASEHAIRIVITDQGPGFDTSNVPQAGELDASSLAASADGVGQADKQGLLLIASFVDQMWFNDEGNQITLVKRCGAEGHHHHHH”, the “soluble on expression in E. coli” value is “not soluble”.

In the case of “MSLDFATEYVYPAFSELTGTDKIVAFGDHSHKCPIYVPQTPPCTAECPAGEDIRAINRFLNGTDPSDDPLKSAWETATDTNPFPAVMGRICPHPCQSKCNRGVHDESVAINAVEQVLGNYGIEHNLKLKGPGADTGKRVAIIGGGPAGLSAAYQLRRKGHAVTIYDANEKLGGMVLYGIMGYRVDRKVLEAEIGRIIELGVETKMGVTIGKDITLEQLEAEYDAVFIAVGAQKGRALPVPGFEGTPGATNAIDFLKSYEVLGDDIPVGKHVVVIGDGNVSMDVARLALRLGSQATIISGVPREEMACFENEFDDAKNEGTTMHFLTGTVEVLGGASGVTGLRCTKMVKKEKGEEGWNSPIPFLRYKSNGESFEIEADMVVAAIGQATDLSGLGSAASGPWLKVDRNFRIPGREKLFGGGDALKVDLITTAVGHGRKAAYAIDAFLKGEPMPEEGHHHHHH”, the “soluble on expression in E. coli” value is “soluble”. For the sequence “MSLDFLSQCTSGGCGAKIESRVLNQLLQHLPETPANERLLVGFEHADDAAVYQITSEKALISTVDFFSPMVNDPLSFGKIAVANALSDVYAMGGTVLYALNLVCFPQKMSKEWLEQMLLGGSLKLKEAGALLAGGHSIYDHEPKYGLAVTGEVHPENLWHNNTPQVGDVLILTKALGVGIIQAAVRGQLAKQTEQKIAQDSMERLNKYAAANARSYAVHACTDVTGFGLLIHAKEMADNQVTLLIDTEALPTITGALAYAAECLVTAAGQRNRQTIGTTIDYSKISMEMQELLFDPQTSGGLLISVAADEAAACLAAIQKEDPVAKIIGEVLPKEQQAVVLLEGHHHHHH”, the “soluble on expression in E. coli” value was “not soluble”. Then “MSLDIARIAVHESVAKACPLEAMVAALQGPDVRVETVGDDASFDASDCVVTFSPREAFLDAAWVHGIRAGYDEFDVDAYEAAGTVLTNSTGIHGDTVPETVVGYLTAFARRLHVYRDRQRDNDWTQEPYDAPFTLTGEQVCVVGLGTIGQGVADRTDALGMDVVGVRRSGDPAENVERVYTPDELDAAVADARFVVLCCPLTEETEGMVDAALLAQMRADSYLVNVARGPVVVEDALLNALDTGTIAGAALDAHWAEPLPDDHPLWNHESAIVTPHVAAATSRYHEDIAALVRENVERATRGESLRNRVAEGHHHHHH”, with “not soluble”.

In the case of “MSLDIENTLLKQEAWRFIDNTTINPAFDAIQSFATDDTLCRSVGARMVPPTVRGWVHEKTVSLGIQDSKLPDIDKGIAFLQEQGYRVVVRNSGGLAVVLDSGVLNLSMVLPDAERGIAIERGYETMFTLIKDMFVDCNEVIEAKEIVNSYCPGSYDLSIQGQKFAGISQRRMAKGVAVQIYLAVEGDQAARSELIRDFYTISGKDKQTKYSFPDVKPEVMGTLSDLMKENMTVNGCLVRLFNSLRHYAGKLESGTLTPEELDLFPAYYERLIARNDKVLSEGHHHHHH”, the “soluble on expression in E. coli” value is on record as “soluble”.
